From patent US20100255011A1 (University of Washington, published 2010)
Residue numbers refer to the chain shown, from its start.

T1: soluble recombinant CD46 (sCD46) (human, UniProt P15529 35-343)
T1 construct: Soluble form produced as described in Wang et al. 2007; also called soluble CD46
T1 sequence: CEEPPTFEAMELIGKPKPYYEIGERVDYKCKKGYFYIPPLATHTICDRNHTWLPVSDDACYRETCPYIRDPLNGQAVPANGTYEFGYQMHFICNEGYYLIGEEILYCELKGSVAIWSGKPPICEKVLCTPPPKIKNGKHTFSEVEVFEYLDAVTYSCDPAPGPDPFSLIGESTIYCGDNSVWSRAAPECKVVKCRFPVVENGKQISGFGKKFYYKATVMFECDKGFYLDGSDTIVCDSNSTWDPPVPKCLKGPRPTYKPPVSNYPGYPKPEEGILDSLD

T2: CD46 on the surface of human cells (HeLa, Raji, PBMC and others) (human, UniProt P15529 35-376)
T2 sequence: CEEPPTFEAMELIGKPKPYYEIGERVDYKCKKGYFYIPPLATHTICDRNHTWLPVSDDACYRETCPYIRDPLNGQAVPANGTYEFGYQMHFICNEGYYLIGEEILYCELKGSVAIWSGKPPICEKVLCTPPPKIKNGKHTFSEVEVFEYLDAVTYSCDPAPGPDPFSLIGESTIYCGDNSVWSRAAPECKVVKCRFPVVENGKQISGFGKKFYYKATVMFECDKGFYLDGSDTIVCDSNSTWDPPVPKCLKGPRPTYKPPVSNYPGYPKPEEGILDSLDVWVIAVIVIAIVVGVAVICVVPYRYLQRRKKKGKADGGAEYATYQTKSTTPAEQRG

B1: wild-type Ad35 fiber knob protein (other)
chain: HHHHHHGDICIKDSINTLWTGINPPPNCQIVENTNTNDGKLTLVLVKNGGLVNGYVSLVGVSDTVNQMFTQKTANIQLRLYFDSSGNLLTDESDLKIPLKNKSSTATSETVASSKAFMPSTTAYPFNTTTRDSENYIHGICYYMTSYDRSLFPLNISIMLNSRMISSNVAYAIQFEWNLNASESPESNIATLTTSPFFFSYITEDDN
notes: Recombinant, made in E. coli, homotrimer; Biotinylated (EZ-Link Sulfo-NHS-LC-Biotin) for SPR; also called Ad35K; wild-type Ad35K
B2: mutant Ad35 fiber knob protein with Asp207Gly and Thr245Ala substitutions (Ad35K++) (other)
chain: B1 chain with D91G, T129A
notes: Recombinant, E. coli, spontaneously forms trimers; Biotinylated for SPR; also called Asp207Gly + Thr245Ala; Ad35K++ polypeptide

Key:
[1] = biological target: soluble recombinant CD46 (sCD46) (human) (UniProt P15529); assay: SPR, Biacore T100; biotinylated knob on streptavidin chip, sCD46 injected
[2] = biological target: soluble recombinant CD46 (sCD46) (human) (UniProt P15529); assay: SPR, ratio of KDs
[3] = biological target: CD46 on the surface of human cells (HeLa, Raji, PBMC and others) (human) (UniProt P15529); assay: cell-based or functional assay
[4] = biological target: T1, soluble recombinant CD46 (sCD46); assay: SPR, Biacore T100; biotinylated knob on streptavidin chip, sCD46 injected
[5] = biological target: T2, CD46 on the surface of human cells …; assay: cell-based or functional assay
[6] = biological target: T1, soluble recombinant CD46 (sCD46); assay: SPR, ratio of KDs

Row | Molecule | Kd [1] [nM] | koff [1] [s⁻¹] | kon [1] [M⁻¹ s⁻¹] | fold higher affinity than the wild-type fiber knob protein [2] [fold] | other results
1 | Ad35 fiber knob mutant Asp207Gly + Thr226Ala | 1.41 | 0.0026 | 1.97e+06 |  | 
2 | Ad35 fiber knob mutant Thr245Ala | 7.64 | 0.0173 | 2.25e+06 | 1.9 | 
3 | Ad35 fiber knob mutant Ile256Leu | 11 | 0.0236 | 2.13e+06 | 1.3 | 
4 | Ad35 fiber knob mutant Asn217Asp + Thr245Pro + Ile256Leu | 4.82 | 0.0097 | 2.25e+06 |  | 
5 | Ad35 fiber knob mutant Asp207Gly | 1.77 | 0.0034 | 3.51e+06 | 8.3 | 
6 | Ad35 fiber knob mutant Asp207Gly + Thr245Ala + Ile256Leu | 0.92 | 0.0018 | 1.96e+06 |  | 
7 | mouse anti-human CD46 antibody, clone MEM-258 (AbD Serotec) |  |  |  |  | level of CD46 on the surface of HeLa cells (flow cytometry), decline [3]: 30%; viability of Raji cells with NHS (alone or with daclizumab), decline [3]: 30%
8 | B1 |  |  |  |  | Kd [4]: 14.6 nM; koff [4]: 0.0234 s⁻¹; kon [4]: 1.52e+06 M⁻¹ s⁻¹; killing of Raji cells by rituximab/NHS, increase against rituximab/NHS only [5]: ~2 fold
9 | B2 |  |  |  |  | Kd [4]: 0.63 nM; koff [4]: 0.0017 s⁻¹; kon [4]: 2.48e+06 M⁻¹ s⁻¹; decrease of mean CD46 fluorescence intensity on PBMCs [5]: 1.97 fold; decrease of mean CD46 fluorescence intensity on Raji cells [5]: 7.54 fold; fold decrease in GFP expression after Ad35-GFP infection of HeLa cells pre-incubated 72 hours earlier, against Ad35K-279 [5]: 1000 fold; killing of Raji cells by rituximab/NHS, increase against rituximab/NHS only [5]: ~10 fold; fold higher affinity than the wild-type Ad35 [6]: 23.2 fold
